Laboratory results as given in article PMC8366996, “A novel cascade allows Metarhizium robertsii to distinguish cuticle and hemocoel microenvironments during infection of insects”.

Columns and labels:
COH2-DBD [1] = target: T1, COH2-DBD (Metarhizium robertsii, UniProt E9F6D9 1-100); experiment: EMSA; LightShift Chemiluminescent EMSA Kit; competitor up to 300-fold excess; buffer, salt, pH and temperature not stated; conditions: protein: recombinant; tags: His (pET28a); chain copies: 2; label: biotin on one strand (Bio-probe); unlabeled as Cold-probe
COH2-DBD [2] = target: T1, COH2-DBD; experiment: competition; unlabeled mutant, 300-fold excess; almost completely abolished shift; LightShift Chemiluminescent EMSA Kit; competitor up to 300-fold excess; buffer, salt, pH and temperature not stated; conditions: protein: recombinant; tags: His (pET28a); chain copies: 2

Binder	binding result (COH2-DBD [1])	binding result (COH2-DBD [2])
COH2-BM wild-type probe (dsDNA) DNA 1: TTCATCTGCCGAAATGTGGACGCTGACTCGGTATGCATTGCACCATCTC DNA 2: GAGATGGTGCAATGCATACCGAGTCAGCGTCCACATTTCGGCAGATGAA	binds	
7A (dsDNA) DNA 1: TTCATCTGCCGAAATGTGGACGCTGACTCAGTATGCATTGCACCATCTC DNA 2: GAGATGGTGCAATGCATACTGAGTCAGCGTCCACATTTCGGCAGATGAA		binds
